# Test: soluble on expression in E. coli; label from the status in PepcDB or PDB records
row,Sequence,soluble on expression in E. coli
1,MTSRKAKESAHMSASDIISTFNDFFTNFPANKSFDMTYKVYLKDLADADEELTSSRRNSELNLTENKPITIASCGFVPQMMSSSTVKNLSLSSSATNFNSEKSEIGSKITMNPAKQVLKGRNTRKKRSMVDLSQINKIFGRDYNPPAPSSKSPPTIYVNLGVIYSSSSSHASDASSISSHTSVSSTFTEKQHEFGKLVPSGTDGSLELFVKVADCFD,not soluble
2,MTSSATSPTNGVDKNKNEEMVATPANCPYQLFNQEVVWNGKWIQTRQVGFKTHTGQVGVWQSVHRNTKPVEASADGVSIIARVRKQGKLYIVLVKQYRIPCGKLCLELPAGLIDAGETAQQAAIRELKEETGYVSGKVVMESKLCFLDPGLTDDSQCLVVVDVDGDAPENQNPVQVLDSTESIEVLLVEQSALMAYVTNLDSSSIVVESTLLAYAMGIQFATI,not soluble
3,MTSSSTPRHRGIFPVVPTTFADTGDLDLASQKRAVDFMIDAGSDGLCILANFSEQFAITDDERDVLTRTILEHVAGRVPVIVTTSHYSTQVCAARSLRAQQLGAAMVMAMPPYHGATFRVPEAQIFEFYARVSDAIAIPIMVQDAPASGTALSAPFLARMAREIEQVAYFKIETPGAANKLRELIRLGGDAIEGPWDGEEAITLLADLHAGATGAMTGGGFPDGIRPILEAWREGRHDDAYARYQAWLPLINHENRQSGILTAKALMREGGVIASERPRHPMPELHPDTRAELLAIARRLDPLVLRWAH,soluble
4,MTTAIQYQVIPLADREHSNKVASILENKYKTATNKRITLNERFGVLEKGYTIQATEPETVKNDSDVFFVVHDRNLNSKKEFVENYLAKNPIVNSPEKVFEEEDKENAPTKKAVLKPSSTDEKKLTSSDIYIQEITRSILQSV,not soluble
5,MTTARDIMNAGVTCVGEHETLTAAAQYMREHDIGALPICGDDDRLHGMLTDRDIVIKGLAAGLDPNTATAGELARDSIYYVDANASIQEMLNVMEEHQVRRVPVISEHRLVGIVTEADIARHLPEHAIVQFVKAICSPMALAS,soluble
6,MTTAVQPSDTTGFGGGPAGSRASDLIQFQEIMSESAESSSSSSQTNVSAANTLPRESNGQNYADDPSHVYTNIREIEELNSRPVPPTPRADAQPRRDLLNGWFEYETDVGRTFFFNKETGKSQWIPPRFIRTPAQVQEFLRATRTNLDTTCSFQGSSTSSSEEQKENKMRESLADDDRKSQLIEDEEVFDEVCDDVDEQSSPVIDLQSRPLPIPFSDSFTDDEDEDDVKPIEGSIASDSDFDEEPVPTSSRKASTASGVMMPHPYAHVSSFQSTFPRAKNEDTDKLASYVIPPDANETSKTPTAIRVRRPSPTNLRSVSFQNKCTVLKNVPMPQVLPTTSSSFDHHPQYHSNTPDRPILMEDSADFTPSSRCEERRGSGDGREPVRTIRCGDLERSENDEPAEKVVKPKKREWITNYMYLTTAHLILYKDQKSAEKHGKHYDAPQGVWDLRGASVTWYQDNRDVQKKKQRKYIQLELCNTKKYLLRGPNDTEAVEWYKSLEEVVAKLPSPGSSNQPMIDVTNGVARNPSYIGSTRPLSHALIPISRSMRRRDDPMSQSAIETVSTSVSTDEPRPSKETIIEKLRRFFRTRPTVESLKEKGIYKPEPVFGSTLSAICQHENSLVPKFIRVITEVIESKGLETDGIYRVSGNLSAVQKIRCQADQDNYKALVSEEDIHVLTGALKLFFRELTDPLFPISLHKEYTSAMQMPNATTRFKKFEELLSRLPNENRETLKMLLRHLNRVASHSSQNRMQQHNLAIVFGPTLFHNGDGAVNLATKNKKAGKKAKPSKKEETQATPVQSNSHLAFSMIMQSQIVQYLLESANKFDILKAPVNIGR,not soluble
7,MTTEAPVRVEDKLYQNRYLVDVGNAHIKVKPHTKPSPQLLALLKVCPAHCYELNSNGQVEVTPDGCVECGTCRVLAEGGGDIEWSYPRGGYGVLFKFG,not soluble
8,MTTEQEFEKVELTADGGVIKTILKKGDEGEENIPKKGNEVTVHYVGKLESTGKVFDSSFDRNVPFKFHLEQGEVIKGWDICVSSMRKNEKCLVRIESMYGYGDEGCGESIPGNSVLLFEIELLSFRELE,soluble
9,MTTFILSHNLQVQSKDVPPFETQVLADGIVSNSSAIISATVIQHPHWIIELTSNLPPNDMAVELVKSWKQLRSKLGQSADHVILALGGRKDSLAAPGAPLQEGFWGVDVVETHDEEAFLQAINWDALKSNRPEDGVFEISSNN,not soluble
10,MTTHSAHLLRRLNPYCAQALAGAATLCQTRAHAEITVEHWLLKLLEQGEGDITVIARRYEWDMDSLWQGLLSHLDTLPRTVQGKPQLSAALQQLIKNAWLDASLQENADAVRSVHLMAALIATPSLLVAEAAWPLLSLSTTQLQRLLPLLDNQSDERPEVQQAAALADSPVNLTDEAATVTSASGQPQLNDALQAALDKFTLDVTAKARANQIDPIFGRDSEIRQMIDILSRRRKNNPILVGEPGVGKTALVEGLALRIADGNVPDSLKTVSVRTLDLGLLQAGAGVKGEFEQRLKNVIEAVQQSPSPVLLFIDEAHTIIGAGNQAGGADAANLLKPALARGELRTIAATTWSEYKQYFERDAALERRFQMVKVDEPDDDTACLMLRGLKERYATHHGVHILDAAITAAVTLSRRFLTGRQLPDKAVDLLDTAGARVRMSIDTLPTALMEINAELAALAMEQQAIEQDLLLLPNVSSTRLPEIEQRRAALAVGQHTLEQQYKEEKRLTTLIIEARQDIANAAHLVALQEELVQIQGNAPLLSLDVDVRTVAAVIADWTGVPLGSLLKDEQTNLLSLENRLGERVIGQDAALGALAQRLRAAKTGLTSENGPLGVFLLVGPSGIGKTETALALADSLFGGEKSLITINLSEYQEAHTVSQLKGSPPGYVGYGQGGVLTEAVRKRPYSVVLLDEVEKAHRDVLNLFYQVFDRGFMRDGEGREIDFRNTVIVMTANLGSDHLMQLLDEQPDAPDSTLHELLRPILRDHFQPALLARFQTLIYRPLQVDALKRIVAIKLNQVAQRLHCHYGLSCQIEDSLTDTLVAACLLPDTGARNIDSLLNQQILPVLSQQLLSRMSEQQRTTSLTLGWHEEDGITLTFEGE,not soluble
11,MTTLIISDLHLDPLRPVVTELFLRFLREQVSGADALYILGDLFEIWIGDDMPSEVADMVVAALRTHADAGTPLYFMPGNRDFLVGADYAARAGFRILPDPCVVDLYGEPTLLLHGDLLCTDDIAYQAFRAQTRDPEFIAQFLTQTLSARLAFAQQARLASHAHQSGLKQENDSTQFEKITDVVPADVAAMFACYGVNRMIHGHTHRPALHMLQVAECACTRVVLGDWYQQGSVLCVDADGLVLEQLLLP,not soluble
12,MTTLNELKHGLEEAWESLAEGWHRLRERAAGALTRFKPGASVPAVPRRQEDFYLASPTWALLAGDVYEDDRKVVIRLEVPGMEKEDFNLELRGDLLIVQGEKRLERETSEGRYRVLQCAYGHFHRVIPLPAEVVADRVQASYRNGVLKIELPKAAARLPRNIEIPVRLEHHHHHH,not soluble
13,MTTLNKENIQKEFKERLSEDELLNCMRCGFCLPTCPTYIQSGYKESHSPRGRIALMKAVVDGLIEPDEDVENTLNVCLGCRACEPVCPSGVNYGHLLEEARDIINQNKKFSMPVRAVRKVVFEELFPHQNRMRTLTGLIGFYQRSGLQTITHKTGIMKLFPETLATMDLVLPKVPKMKAMKDRPTFLPAESTKKKQVAFFTGCLMDTMFLETNNATMKLLQLAGCDIVIPKTQSCCGALHGHAGEKSGAKELAKRNIKAFEDLNIDYIITNAGGCGAYLVDYDYLLKDDPQWAGRAKQFVSKIKDITAILVELDFHKRNDLRLTPQIITYQDSCHLRNVMRTSSEPRMLLEAIQGATYREMKDADRCCGSAGIYNIVHSELSMEFLDYKMDRVHETDATTIVTANPGCLLQMKLGIEREGLSHKMRGIHIVDLLLEAIETNS,not soluble
14,MTTQSTLQSVPALGTHPASGSNPSRAETREQLSKASYDLLVIGGGILGISTAWHAAQSGLRVAVVDAGDFAGATSSASSKLLHGGLRYLQTGAVKLVAENHFERRAVSRQVAPHLANPLTFYLPVYKGGPHGAAKLGAGVFAYSALSAFGDGVGHLLSPAKAAQDVPELRTDNLKAVAVYGDDQMNDARMALMTVRAAVESGAVVLNHAEVTGLRFTGGRVTGAELKDRLSGDEFGVNARLVLNATGPWVDHLRRMEDPAAAPSIRLSKGAHLVLKRTAPWKAALATPIDKYRITFALPWEDMLLLGTTDEEFEGDPADVAVNDKDITQILDEAAFSIRDQQLDRDLITYSFAGLRVLPGGPGDTAKAKRETVVTEGRGGMLSVAGGKWTTFRHIGRTVMKKLEALPGHPLGDDFEPIASLPKKLPLPGVANPRAVAHRLLVDGSAPGPRMAADTARHLATHYGSLAFDIARLANESPELARRVHPDAPEIWAQVVWARDNEWAETADDVLRRRTTLTIRGLATDDVRAQVQDVLDKKLEHHHHHH,not soluble
15,MTTSNIKALIPSELRKVWEFILDIENYDAWRSDLSKTEVVSDKQFIEYTKDGYPTTFTVTLVEPYRRWEFDMQNSNMSGHWIGVFTDKGNETEIDFTECVEAKKMLMKPFVKSYLKKQQAQFVADIMKNFSLEHHHHHH,soluble
16,MTTTEVKMFTFNSVAENTYILYDSTGEAALIDCGCMDGSEEQQLLRFVQEQQLTVKLLLNTHLHFDHAWGNGFAAKTFGLPVLTHRAEVEEMPSPSKQLAAFGMFGTMDEPPIQYIAPGDVLQLGESIIKVLFVPGHSPGHLAFYCPQAQAVFTGDALFAGDMGRTDLWGGSYELLKKSIRTELLPLPDDTVVYPGHGPTSTIAYERTNNPFLD,not soluble
17,MTTWLYAGVDGGGTGCRARIYQANGTPLGQGHGGRANLLLGVENVRQSVDNAIAQALKHSGLSPDDVSRLKVGLALASAEHRTAYDTFLALPHPYATQVLNTDALGACLAVNQGKDAGVVIAGTGSCGLAWQNQTITAYGGHEFPISDQGSGARLGLAALQHTHDVLQGWRAPSALSQSIDDFFCASAAHALAANTLDALQTFSQQAKPGDYAQFARHVFDCAQQDDAVSHALLAQTASEICLLLAAVARHASPRLSLMGSIGLHIRPWLPDEWQSQLAVPMGDALDGARLIACHDYALYSHPLLEHHHHHH,not soluble
18,MTVEERSNTAKVDILGVDFDNTTMLQMVENIKTFFANQSTNNLFIVTANPEIVNYATTHQAYLELINQASYIVADGTGVVKASHRLKQPLAHRIPGIELMDECLKIAHVNHQKVFLLGATNEVVEAAQYALQQRYPNISFAHHHGYIDLEDETVVKRIKLFKPDYIFVGMGFPKQEEWIMTHENQFESTVMMGVGGSLEVFAGAKKRAPYIFRKLNIEWIYRALIDWKRIGRLKSIPIFMYKIAKAKRKIKKAK,not soluble
19,MTVGYGFSASGDYSQSKIRADHASVTEQSGIYAGEDGYQIKVRDNTDLKGGIITSSQSAEDKGKNLFQTATLTHSDIQNHSRYEGKSFGIGGSFDLNGGWDGTVTDKQGRPTDRISLAAGYGSDSDSQSSITKSGINTRNIHITDEAGQLARTGRTAKETEARIYTGIDTETADQHSGRLKNSFDKDAVAKEINLQREVTKEFGRNATQAVAAVADKLGNTQSYERYQEARTLLEAELQNTDSEAEKAAFRASLGQVNAYLAENQSRYDTWKEGGIGRSILHGAGRQSAMRRAGMSVRRQ,not soluble
20,MTVISSHWWRCISLNSKSNRCSSSSGNHLMMGGKKTCVLMRATFMVIATDYEFERRWCRRTGTIAGCHLISKQAEVGEMMCMIEL,not soluble

# Reference: the DeepSol protein solubility set
